Measured values as given in US20150238626A1, “RECEPTOR LIGAND LINKED CYTOTOXIC MOLECULES” (ONTOCHEM GMBH, priority 2012, published 2015).

Key:
[1] = molecular target: human Y2 receptor C-terminally fused to EYFP (human) (UniProt P49146)
[2] = molecular target: human Y1 receptor C-terminally fused to EYFP (human) (UniProt P25929)
[3] = molecular target: human Y2 receptor C-terminally fused to EYFP (human) (UniProt P49146); remark: listed apart in the source

EC50, functional IP3 second messenger assay [1]: 0.5 nM
EC50, functional CRE reporter gene assay [2]: 0.77 nM
EC50, functional CRE reporter gene assay [3]: 0.87 nM
Substance: NPY (ligand)
